Experimental data reported in publication PMC11393453, “Phosphorylation of tau at a single residue inhibits binding to the E3 ubiquitin ligase, CHIP” (Nature Communications, 2024).
Changes are numbered by the printed parent chain. In names and notes the source's numbering stands. Like-named read-outs stand apart in the source and are kept apart here. Non-standard residues stand in square brackets, D forms with d. pS = N[C@@H](COP(=O)(O)O)C(=O)O

Tests used:
[1] = test system: CHIP; assay: Differential scanning fluorimetry (DSF), CHIP WT with 10-mer peptides; assay type: binding, human; conditions: CHIP + peptide, sheet S3B
Experimental: DSF was performed with a 10 µL assay volume in 384-well Axygen quantitative PCR plates (Fisher Sci) on a qTower[3] real-time PCR thermal cycler (Analytik Jena). […] Temperature was increased 1 °C per cycle. Each well contained 5 µM CHIP, 5× Sypro Orange dye (Thermo Fisher), and varying concentrations of peptide in DSF assay buffer (25 mM HEPES pH 7.4, 50 mM KCl, 1 mM TCEP, 0.2% CHAPS, 1%DMSO). Fluorescence intensity data was truncated between 30–60 °C, plotted relative to temperature, and fit to a Boltzmann Sigmoid in GraphPad Prism 9.0. CHIP apparent melting temp (Tmapp) was calculated based on the following equation:1 Y=Bottom+((Top−Bottom)/(1+exp(Tm−T/Slope)))

[2] = target: CHIP (C-terminus of Hsc70 interacting protein; STUB1) (UniProt Q9UNE7); assay: tau IP (Tau-5), CHIP western blot; conditions: reference: GFP-tauC3 WT; sites S416
[3] = target: CHIP (C-terminus of Hsc70 interacting protein; STUB1), recombinant human, full-length (human) (UniProt Q9UNE7)
[4] = target: GFP-tagged tauC3 S416E, doxycycline-inducible in HEK293 Flp-In T-REx cells; assay: co-IP; tau immunoprecipitated with anti-Tau-5 and Protein A/G agarose from lysates of HEK293 Flp-In T-REx GFP-tau cells (25 mM Tris-HCl pH 7.4, 150 mM NaCl, 1 mM EDTA, 1% NP-40); co-precipitated endogenous CHIP by western blot
[5] = target: CHIP (C-terminus of Hsc70 interacting protein; STUB1), recombinant human, full-length (human) (UniProt Q9UNE7); remark: listed apart in the source
[6] = target: CHIP (C-terminus of Hsc70 interacting protein; STUB1) (UniProt Q9UNE7); assay: competition FP against fluorescent tracer; conditions: reference: unmodified Hsp70 peptide; sites T636
[7] = target: CHIP (C-terminus of Hsc70 interacting protein; STUB1) (UniProt Q9UNE7); assay: differential scanning fluorimetry of CHIP
[8] = test system: CHIP; assay: NanoBiT live cell PPI assay (CHIP-tau split luciferase); assay type: cell-based; conditions: 30 nM okadaic acid; HEK293 cells
Experimental: Fig. 1 Phosphorylation of tauC3 inhibits interaction with CHIP. A Cartoon schematic of the live-cell NanoBiT assay for measuring CHIP-tau PPIs (NanoBiT PDB = 7SNX; CHIP PDB = 2C2L). B Results of NanoBiT assays for CHIP interactions with tau proteoforms following treatment with okadaic acid (30 nM, 18 h) or DMSO control. Luminescence normalized to CHIP binding to FL 0N4R tau treated with vehicle (dashed line). Error bars represent standard deviation (SD). Statistical significance was determined by two-way ANOVA with Bonferroni’s post hoc analysis (n = 3 biological replicates). CTRL = mock transfected control. C Tau proteoforms binding to immobilized CHIP measured by ELISA. Assay was performed in technical triplicate and normalized to maximum absorbance at 450 nm. D Dissociation constants derived from (C). Error bars represent SD. E In vitro ubiquitination of tau proteoforms by CHIP. Samples were collected at the denoted timepoints, quenched in SDS-PAGE loading buffer, and analyzed by western blot. Assay was performed once.
Fig. 2 Phosphorylation of tauC3 Ser416 is sufficient to inhibit interaction with CHIP. A Cartoon depicting constructs used for mapping of inhibitory phosphorylation sites by NanoBiT live cell assays. B NanoBiT live cell assay for CHIP interactions with truncated tau constructs following treatment with okadaic acid (30 nM, 18 h) or DMSO control. Data are shown as the difference between okadaic acid treated samples and vehicle control. Error bars represent SD. Statistical significance was determined by two-sided, one-way ANOVA with Tukey’s post hoc analysis (n = 3 biological replicates). C Apparent change in melting temperatures (Tmapp) for CHIP incubated with DMSO control or Hsp70 C-terminal peptides, as determined by DSF. Error bars represent SD. (n = 4 technical replicates). D DSF experiments performed and analyzed as in the previous panel, but with tauC3-derived peptides. (n = 4 technical replicates). E Competition FP experiment showing displacement of fluorescent tracer from the CHIP TPR domain by various 10-mer Hsp70 or tauC3-derived peptides. Experiments were performed in technical quadruplicate. F Inhibition constants derived from (E). Error bars represent SD. G Tau proteoforms binding to immobilized CHIP, as measured by ELISA. Assay was performed in technical triplicate and normalized to maximum absorbance at 450 nm. H Dissociation constants derived from (G). Error bars represent SD.
CHIP-substrate NanoBiT PPI assay was performed as previously described. Briefly, HEK293T cells were seeded in poly-D-lysine coated 96-well plates (Corning, flat bottom, white opaque) in Opti-MEM. Cells were transfected with 50 ng each SmBiT/LgBiT DNA using Lipofectamine 3000 (Thermo Fisher) in Opti-MEM according to the manufacturer’s instructions. Transfections were performed for 24 h, after which the media was replaced with fresh Opti-MEM containing DMSO or 30 nM okadaic acid. Cells were incubated for an additional […] at 37 °C/5% CO2 in a humidified incubator. Following this incubation, 12.5 uL 1X Nano-Glo live cell luciferase reagent (Promega) diluted in LCS buffer (Promega) was added to each well, and samples were incubated for 10 min at room temperature in the dark to allow luminescence levels to stabilize. […] Un-transfected cells were used to obtain background measurements which were subtracted from observed luminescence values.

[9] = target: T1, CHIP (C-terminus of Hsc70 interacting protein; STUB1), recombinant human, full-length (human, UniProt Q9UNE7 1-303); assay: fluorescence polarisation; competition: CHIP 1.58 µM + fluorescent tracer 20 nM, peptide competitor in three-fold dilutions, 25 mM HEPES pH 7.4, 50 mM KCl, 0.01% Triton X-100, DMSO; Ki calculated from IC50; conditions: both partners purified
T1 construct: CHIP (STUB1), human, E3 ubiquitin ligase; Used in ELISA, DSF and FP; the FP legends speak of the CHIP TPR domain, the FP methods only of CHIP; also called WT CHIP; source: E. coli BL21DE3, purified (Ni-NTA, TEV cleavage, SEC); not shown: His6, N-terminal, cleaved
T1 sequence (looked up): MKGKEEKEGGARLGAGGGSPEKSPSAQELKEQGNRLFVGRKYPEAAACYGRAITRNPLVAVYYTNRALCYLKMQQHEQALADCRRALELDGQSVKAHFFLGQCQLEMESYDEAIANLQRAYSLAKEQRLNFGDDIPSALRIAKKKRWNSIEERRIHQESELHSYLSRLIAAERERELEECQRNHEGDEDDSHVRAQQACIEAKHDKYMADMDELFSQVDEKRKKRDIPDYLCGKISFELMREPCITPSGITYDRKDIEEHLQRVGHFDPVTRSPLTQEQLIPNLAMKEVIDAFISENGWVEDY

[10] = target: T2, CHIP D134A (human, UniProt Q9UNE7 1-303, D134A); assay: as above; conditions: both partners purified
T2 construct: CHIP (STUB1) with Asp134 mutated to alanine; also called D134A CHIP
T2 sequence (looked up): T1 sequence (looked up) with D134A

[11] = target: T3, CHIP F131A (human, UniProt Q9UNE7 1-303, F131A); assay: differential scanning fluorimetry; 5 µM CHIP, 5x Sypro Orange, varying concentrations of peptide in 25 mM HEPES pH 7.4, 50 mM KCl, 1 mM TCEP, 0.2% CHAPS, 1% DMSO; apparent melting temperature (Tmapp) of CHIP; conditions: both partners purified
T3 construct: CHIP (STUB1) with Phe131 mutated to alanine
T3 sequence (looked up): T1 sequence (looked up) with F131A

[12] = target: T2, CHIP D134A; assay: as above; conditions: both partners purified
[13] = reference: unmodified tauC3 peptide, sites S416

ESTGSIDMVD [tauC3 S412E, 10-mer tauC3 phosphomimetic peptide]
Tm(app) derived from DSF curves ([1]; replicate 1): 50.23
Tm(app) derived from DSF curves ([1]; replicate 2): 50.09
Tm(app) derived from DSF curves ([1]; replicate 3): 49.65
Tm(app) derived from DSF curves ([1]; replicate 4): 49.78

tau (MAPT/tau; tauC3, FL 0N4R tau) tauC3, ends at D421 (from UniProt P10636-8) GFP-tauC3 S416E
other: relative amount of co-IP CHIP [2]: 0.55

p.tauC3, natively phosphorylated tauC3 from Sf9 insect cells (domain or fragment)
Kd [3]: 700 nM

endogenous CHIP (from UniProt Q9UNE7 1-303) (enzyme)
relative amount of co-immunoprecipitated CHIP [4]: 0.55

tauC3 S416E, recombinant protein with a single phosphomimetic mutation (domain or fragment)
Kd [5]: 780 nM

Hsp70 (HSPA1A) C-terminal 10mer (from UniProt P0DMV8) pT636 peptide
binding against the reference [6]: weaker
binding against the reference ([7]; reference: unmodified Hsp70 peptide, sites T636): weaker

C=C1[C@@H](O)[C@@H]2O[C@]3(CC[C@H](/C=C/[C@@H](C)[C@@H]4CC(C)=C[C@@]5(O[C@H](C[C@@](C)(O)C(=O)O)CC[C@H]5O)O4)O3)CC[C@H]2O[C@@H]1[C@@H](O)C[C@H](C)[C@H]1O[C@@]2(CCCCO2)CC[C@H]1C [okadaic acid, reference compound]
effect on CHIP interaction with FL tau [8]: enhanced CHIP’s interaction with FL tau
effect on CHIP interaction with tauC3 [8]: significantly lessened the interaction with tauC3

tau (MAPT/tau; tauC3, FL 0N4R tau) C-terminal 10-mer of tauC3, ends at D421 (from UniProt P10636-8) S416E peptide (Ac-…-OH)
other: CHIP Tmapp [7, 13]: weaker; reference 48.81 ± 0.11

SSEGSIDMVD [tauC3 T414E, 10-mer tauC3 phosphomimetic peptide]
Tm(app) derived from DSF curves ([1]; replicate 1): 49.33
Tm(app) derived from DSF curves ([1]; replicate 2): 49.12
Tm(app) derived from DSF curves ([1]; replicate 3): 49.22
Tm(app) derived from DSF curves ([1]; replicate 4): 48.96

SETGSIDMVD [tauC3 S413E, 10-mer tauC3 phosphomimetic peptide]
Tm(app) derived from DSF curves ([1]; replicate 1): 50.06
Tm(app) derived from DSF curves ([1]; replicate 2): 50.15
Tm(app) derived from DSF curves ([1]; replicate 3): 49.96
Tm(app) derived from DSF curves ([1]; replicate 4): 49.5

tauC3, unmodified recombinant (0N4R tau cleaved at D421) (domain or fragment)
Kd [3]: 190 nM
Kd [5]: 90 nM

tau (MAPT/tau; tauC3, FL 0N4R tau) C-terminal 10-mer of tauC3, ends at D421 (from UniProt P10636-8) pS416 peptide
binding against the reference [7, 13]: weaker

B1: tauC3 pS416 10-mer peptide (peptide)
peptide: Ac-SSTG[pS]IDMVD-OH
notes: C-terminal 10-mer of tauC3 with a bona fide phosphoserine at the S416 position; numbers count on: the 2N4R-tau splice isoform; also called phosphorylated tauC3 peptide; source: synthetic peptide (Genscript)
Ki [9]: 1010 nM
Ki [10]: 1.84 µM

B2: tauC3 C-terminal 10-mer peptide Ac-SSTGSIDMVD-OH (peptide)
peptide: Ac-SSTGSIDMVD-OH
notes: C-terminus of tauC3 (tau ending at D421); numbers count on: the 2N4R-tau splice isoform; also called WT tauC3 peptide; WT tauC3; source: synthetic peptide
binding result [11]: binds
Ki [9]: 150 nM
Ki [10]: 5.57 µM

B3: tauC3 S416E phosphomimetic 10-mer peptide Ac-SSTGEIDMVD-OH (peptide)
peptide: Ac-SSTGEIDMVD-OH
notes: C-terminus of tauC3 with S416 replaced by glutamic acid; numbers count on: the 2N4R-tau splice isoform; also called tauC3 S416E peptide; pS416 phosphomimetic; source: synthetic peptide
binding result [12]: binds
binding result [11]: binds
Ki [9]: 2410 nM
